Changes are numbered by the printed parent chain.
B1: antibody 731 (antibody, V domains shown)
VH: EVQLLESGGGLVQPGGSLRLSCAASGFTFSSYAMSWVRQAPGKGLEWVSAFSGSGGSTYYADSVKGRFTISRDNSKNTLYLQMNSLRAEDTAVYYCVQDGLGPYFYNYGMDVWGQGTTVTVSS
VL: SYELTQPPSVSVSPGQTASITCSGDKLGDKYTCWFQQKPGQSPVLVIYHDSKRPSGIPERFSGSNSGDTATLTISGTQAMDEADYYCQAWDSSTYVFGTGTKVTVL
B2: HC1 (heavy-chain variant of Ab731 with the parental light chain), membrane-tethered on the cell surface (antibody, V domains shown)
VH: B1 VH with S54W, G55D, G56V
VL: B1 VL
B3: MMAb2 (LC2/HC2) (antibody, V domains shown)
VH: B1 VH with M34G
VL: B1 VL with T32A, C33F
B4: MMAb3 (LC1/HC1) (antibody, V domains shown)
VH: B1 VH with S54W, G55D, G56V
VL: B1 VL with T32S, C33F
B5: HC2 (heavy-chain variant of Ab731 with the parental light chain), membrane-tethered on the cell surface (antibody, V domains shown)
VH: B1 VH with M34G
VL: B1 VL
B6: MMAb1 (LC1/HC2) (antibody, V domains shown)
VH: B1 VH with M34G
VL: B1 VL with T32S, C33F

Experiments:
[1] = target: human interleukin (IL)-13 (Homo sapiens, UniProt P35225); assay: KinExA
[2] = target: T1, cynomolgus monkey (nonhuman primate) IL-13 (Macaca fascicularis); assay: KinExA
T1 chain: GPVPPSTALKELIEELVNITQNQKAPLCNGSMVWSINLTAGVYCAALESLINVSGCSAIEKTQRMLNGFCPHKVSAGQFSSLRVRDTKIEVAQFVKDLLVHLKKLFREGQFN

[3] = target: T1, cynomolgus monkey (nonhuman primate) …; assay: flow cytometry on cells

human interleukin (IL)-13, sequence (P35225 25-146): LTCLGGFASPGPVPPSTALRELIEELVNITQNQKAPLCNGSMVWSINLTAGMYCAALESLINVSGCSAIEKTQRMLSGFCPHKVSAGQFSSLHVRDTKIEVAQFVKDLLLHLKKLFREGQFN

Row | Binder | Kd [1] | Kd [2] | binding result [3]
1 | B1 | 1.9 pM | 3550 pM | 
2 | B2 |  |  | binds
3 | B3 | 0.142 pM | 12.4 pM | 
4 | B4 | 0.034 pM | 5.1 pM | 
5 | B5 |  |  | binds
6 | B6 | 0.295 pM | 18.7 pM | 

Source: publication PMC8808179 (The Journal of Biological Chemistry, 2021)
